According to patent US20200262877A1, “ION CHANNEL-BINDING PEPTIDES AND METHODS OF USE THEREOF” (priority 2017, published 2020):

Assays:
α4β2 = target: T1, α4β2 (Homo sapiens, UniProt P17787+P43681); assay: Ion channel panel (IonWorks Barracuda): α4β2; assay type: cell-based; details: 100% = no change, <100% = inhibition
T1 construct: host or cells: HEK293 or CHO
How it was run: (§1)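 Peptides were tested in duplicate at final 20 μM and 200 nM, with concentration set by amino acid analysis, in HEPES-buffered saline. They were applied for at least 5 min to HEK293 or CHO cells transfected with each channel. Currents were expressed as % inhibition, 1-(Ipeptide/Icontrol)×100, or % activation, Ipeptide/Icontrol×100, against a channel-matched reference compound.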

5HT3a = target: T2, 5HT3a (Homo sapiens, UniProt P46098); assay: Ion channel panel (IonWorks Barracuda): 5HT3a; assay type: cell-based
T2 construct: host or cells: HEK293 or CHO
T2 sequence (P46098 whole entry, looked up): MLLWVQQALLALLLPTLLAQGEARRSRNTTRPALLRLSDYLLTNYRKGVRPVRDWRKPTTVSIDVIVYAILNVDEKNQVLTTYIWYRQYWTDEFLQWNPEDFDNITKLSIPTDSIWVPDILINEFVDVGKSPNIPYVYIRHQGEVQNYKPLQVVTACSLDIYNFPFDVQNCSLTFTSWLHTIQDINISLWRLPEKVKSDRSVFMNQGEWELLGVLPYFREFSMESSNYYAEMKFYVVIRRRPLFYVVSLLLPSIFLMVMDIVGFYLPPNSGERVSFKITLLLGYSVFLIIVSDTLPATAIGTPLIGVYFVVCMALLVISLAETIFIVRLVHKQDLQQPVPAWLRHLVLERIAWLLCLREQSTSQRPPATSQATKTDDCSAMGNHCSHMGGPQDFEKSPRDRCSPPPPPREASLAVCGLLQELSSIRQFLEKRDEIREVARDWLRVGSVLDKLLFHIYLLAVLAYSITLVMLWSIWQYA
How it was run: as §1

Kv1.2 = target: T3, Kv1.2 (Homo sapiens, UniProt P16389); assay: cell-based; assay type: cell-based; details: 100% = no change, <100% = inhibition
T3 construct: host or cells: HEK293 or CHO
How it was run: as §1

Kv1.1 = target: T4, Kv1.1 (Homo sapiens, UniProt Q09470); assay: cell-based; assay type: cell-based; details: 100% = no change, <100% = inhibition
T4 construct: host or cells: HEK293 or CHO
How it was run: as §1

Kv1.3 = target: T5, Kv1.3 (Homo sapiens, UniProt P22001); assay: cell-based; assay type: cell-based; details: 100% = no change, <100% = inhibition
T5 construct: host or cells: HEK293 or CHO
How it was run: as §1

NR2B = target: T6, NR2B (Homo sapiens, UniProt Q13224); assay: Ion channel panel (IonWorks Barracuda): NR2B; assay type: cell-based; details: 100% = no change, <100% = inhibition
T6 construct: host or cells: HEK293 or CHO
How it was run: as §1

Cav2.1 = target: T7, Cav2.1 (Homo sapiens, UniProt O00555); assay: cell-based; details: 100% = no change, <100% = inhibition
T7 construct: host or cells: HEK293 or CHO
How it was run: as §1

Kv2.1 = target: T8, Kv2.1 (Homo sapiens, UniProt Q14721); assay: cell-based; details: 100% = no change, <100% = inhibition
T8 construct: host or cells: HEK293 or CHO
How it was run: as §1

Cav2.2 = target: T9, Cav2.2 (Homo sapiens, UniProt Q00975); assay: cell-based; details: 100% = no change, <100% = inhibition
T9 construct: host or cells: HEK293 or CHO
How it was run: as §1

hERG = hERG (Homo sapiens, UniProt Q12809); assay: in vitro; details: 100% = no change, <100% = inhibition
How it was run: as §1

Nav1.5 = Nav1.5 (Homo sapiens, UniProt Q14524); assay: in vitro; details: 100% = no change; for Activity of Nav1.5 with peptide, expressed as a percentage of the reference compound: peptide at 0.2 μM; for Activity of Nav1.5 with peptide (percentage of the reference compound): peptide at 20 μM
How it was run: as §1

α3β4 = target: T10, α3β4 (Homo sapiens, UniProt P30926+P32297); assay: Ion channel panel (IonWorks Barracuda): α3β4; assay type: cell-based; details: 100% = no change, <100% = inhibition
T10 construct: host or cells: HEK293 or CHO
How it was run: as §1

TRPV1 = target: T11, TRPV1 (Homo sapiens, UniProt Q8NER1); assay: Ion channel panel (IonWorks Barracuda): TRPV1; assay type: cell-based; details: 100% = no change, <100% = inhibition
T11 construct: host or cells: HEK293 or CHO
How it was run: as §1

GABA = assay: Ion channel panel (IonWorks Barracuda): GABA; assay type: cell-based; details: 100% = no change, <100% = inhibition
How it was run: as §1

Kir2.1 = target: T12, Kir2.1 (Homo sapiens, UniProt P63252); assay: Ion channel panel (IonWorks Barracuda): Kir2.1; assay type: cell-based; details: 100% = no change, <100% = inhibition
T12 construct: host or cells: HEK293 or CHO
How it was run: as §1

NR2A = target: T13, NR2A (Homo sapiens, UniProt Q12879); assay: Ion channel panel (IonWorks Barracuda): NR2A; assay type: cell-based; details: 100% = no change, <100% = inhibition
T13 construct: host or cells: HEK293 or CHO
How it was run: as §1

TRPA1 = target: T14, TRPA1 (Homo sapiens, UniProt O75762); assay: Ion channel panel (IonWorks Barracuda): TRPA1; assay type: cell-based; details: 100% = no change, <100% = inhibition
T14 construct: host or cells: HEK293 or CHO
How it was run: as §1

Nav1.7 = target: T15, Nav1.7 (Homo sapiens, UniProt Q15858); assay: cell-based; assay type: cell-based; details: 100% = no change; for Activity of Nav1.7 with peptide, expressed as a percentage of the reference compound: peptide at 0.2 μM; for Activity of Nav1.7 with peptide (percentage of the reference compound): peptide at 20 μM
T15 construct: host or cells: HEK293 or CHO

[1] = first of two Nav1.5 columns (probably TP1)
[2] = second of two Nav1.5 columns (probably TP2)
[3] = first of two Nav1.7 columns (probably TP1)
[4] = second of two Nav1.7 columns (probably TP2)

Sequence of Nav1.5 (Q14524 whole entry): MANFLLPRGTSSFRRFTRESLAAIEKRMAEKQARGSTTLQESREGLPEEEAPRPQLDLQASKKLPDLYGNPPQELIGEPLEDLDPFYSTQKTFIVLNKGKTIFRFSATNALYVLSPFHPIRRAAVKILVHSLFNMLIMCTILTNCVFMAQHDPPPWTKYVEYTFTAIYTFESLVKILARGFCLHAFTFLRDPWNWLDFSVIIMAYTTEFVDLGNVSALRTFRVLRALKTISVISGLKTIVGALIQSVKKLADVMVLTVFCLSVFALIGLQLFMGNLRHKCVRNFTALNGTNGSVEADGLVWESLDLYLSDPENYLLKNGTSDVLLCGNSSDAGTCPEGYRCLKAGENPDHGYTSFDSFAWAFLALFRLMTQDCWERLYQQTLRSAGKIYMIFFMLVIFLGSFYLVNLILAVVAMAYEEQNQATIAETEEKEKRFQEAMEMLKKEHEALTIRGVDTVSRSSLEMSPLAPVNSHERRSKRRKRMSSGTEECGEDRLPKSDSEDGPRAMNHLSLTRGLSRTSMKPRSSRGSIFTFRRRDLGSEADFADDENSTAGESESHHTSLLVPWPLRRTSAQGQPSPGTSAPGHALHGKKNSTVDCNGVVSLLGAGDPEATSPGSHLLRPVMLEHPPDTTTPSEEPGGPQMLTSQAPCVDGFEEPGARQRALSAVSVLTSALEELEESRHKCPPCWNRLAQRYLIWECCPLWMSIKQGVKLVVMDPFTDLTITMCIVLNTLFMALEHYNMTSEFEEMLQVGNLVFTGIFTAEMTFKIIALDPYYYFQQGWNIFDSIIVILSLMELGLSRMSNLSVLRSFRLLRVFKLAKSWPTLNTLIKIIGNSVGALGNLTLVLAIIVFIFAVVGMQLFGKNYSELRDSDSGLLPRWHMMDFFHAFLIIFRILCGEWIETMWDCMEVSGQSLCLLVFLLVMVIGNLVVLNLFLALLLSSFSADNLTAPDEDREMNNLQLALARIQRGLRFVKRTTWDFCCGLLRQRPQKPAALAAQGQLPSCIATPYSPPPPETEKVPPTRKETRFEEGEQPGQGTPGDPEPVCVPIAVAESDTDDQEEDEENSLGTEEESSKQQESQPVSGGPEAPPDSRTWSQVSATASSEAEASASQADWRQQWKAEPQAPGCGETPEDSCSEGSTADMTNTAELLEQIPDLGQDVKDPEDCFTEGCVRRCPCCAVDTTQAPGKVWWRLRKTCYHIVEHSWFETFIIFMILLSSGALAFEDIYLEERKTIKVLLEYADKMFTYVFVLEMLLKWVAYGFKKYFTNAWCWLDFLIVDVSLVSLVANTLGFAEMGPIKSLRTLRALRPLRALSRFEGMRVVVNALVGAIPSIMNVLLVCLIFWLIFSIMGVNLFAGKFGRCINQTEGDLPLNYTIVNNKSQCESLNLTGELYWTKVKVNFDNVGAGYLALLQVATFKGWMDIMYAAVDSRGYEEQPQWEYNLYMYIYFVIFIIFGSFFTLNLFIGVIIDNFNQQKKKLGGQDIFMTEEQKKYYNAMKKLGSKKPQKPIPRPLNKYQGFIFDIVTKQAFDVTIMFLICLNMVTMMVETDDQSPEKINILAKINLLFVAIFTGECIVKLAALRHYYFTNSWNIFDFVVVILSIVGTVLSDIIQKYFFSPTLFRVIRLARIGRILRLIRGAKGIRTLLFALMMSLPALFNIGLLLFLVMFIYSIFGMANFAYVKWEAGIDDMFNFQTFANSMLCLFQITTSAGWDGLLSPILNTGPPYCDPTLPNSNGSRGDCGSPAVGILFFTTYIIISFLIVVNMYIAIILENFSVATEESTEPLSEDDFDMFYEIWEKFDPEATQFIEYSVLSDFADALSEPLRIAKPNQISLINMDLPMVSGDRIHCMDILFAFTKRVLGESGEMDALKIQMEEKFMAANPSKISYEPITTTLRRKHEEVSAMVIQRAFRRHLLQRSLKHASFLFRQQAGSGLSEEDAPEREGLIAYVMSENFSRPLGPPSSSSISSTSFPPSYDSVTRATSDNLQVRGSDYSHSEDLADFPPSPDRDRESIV
T15 sequence (Q15858 whole entry): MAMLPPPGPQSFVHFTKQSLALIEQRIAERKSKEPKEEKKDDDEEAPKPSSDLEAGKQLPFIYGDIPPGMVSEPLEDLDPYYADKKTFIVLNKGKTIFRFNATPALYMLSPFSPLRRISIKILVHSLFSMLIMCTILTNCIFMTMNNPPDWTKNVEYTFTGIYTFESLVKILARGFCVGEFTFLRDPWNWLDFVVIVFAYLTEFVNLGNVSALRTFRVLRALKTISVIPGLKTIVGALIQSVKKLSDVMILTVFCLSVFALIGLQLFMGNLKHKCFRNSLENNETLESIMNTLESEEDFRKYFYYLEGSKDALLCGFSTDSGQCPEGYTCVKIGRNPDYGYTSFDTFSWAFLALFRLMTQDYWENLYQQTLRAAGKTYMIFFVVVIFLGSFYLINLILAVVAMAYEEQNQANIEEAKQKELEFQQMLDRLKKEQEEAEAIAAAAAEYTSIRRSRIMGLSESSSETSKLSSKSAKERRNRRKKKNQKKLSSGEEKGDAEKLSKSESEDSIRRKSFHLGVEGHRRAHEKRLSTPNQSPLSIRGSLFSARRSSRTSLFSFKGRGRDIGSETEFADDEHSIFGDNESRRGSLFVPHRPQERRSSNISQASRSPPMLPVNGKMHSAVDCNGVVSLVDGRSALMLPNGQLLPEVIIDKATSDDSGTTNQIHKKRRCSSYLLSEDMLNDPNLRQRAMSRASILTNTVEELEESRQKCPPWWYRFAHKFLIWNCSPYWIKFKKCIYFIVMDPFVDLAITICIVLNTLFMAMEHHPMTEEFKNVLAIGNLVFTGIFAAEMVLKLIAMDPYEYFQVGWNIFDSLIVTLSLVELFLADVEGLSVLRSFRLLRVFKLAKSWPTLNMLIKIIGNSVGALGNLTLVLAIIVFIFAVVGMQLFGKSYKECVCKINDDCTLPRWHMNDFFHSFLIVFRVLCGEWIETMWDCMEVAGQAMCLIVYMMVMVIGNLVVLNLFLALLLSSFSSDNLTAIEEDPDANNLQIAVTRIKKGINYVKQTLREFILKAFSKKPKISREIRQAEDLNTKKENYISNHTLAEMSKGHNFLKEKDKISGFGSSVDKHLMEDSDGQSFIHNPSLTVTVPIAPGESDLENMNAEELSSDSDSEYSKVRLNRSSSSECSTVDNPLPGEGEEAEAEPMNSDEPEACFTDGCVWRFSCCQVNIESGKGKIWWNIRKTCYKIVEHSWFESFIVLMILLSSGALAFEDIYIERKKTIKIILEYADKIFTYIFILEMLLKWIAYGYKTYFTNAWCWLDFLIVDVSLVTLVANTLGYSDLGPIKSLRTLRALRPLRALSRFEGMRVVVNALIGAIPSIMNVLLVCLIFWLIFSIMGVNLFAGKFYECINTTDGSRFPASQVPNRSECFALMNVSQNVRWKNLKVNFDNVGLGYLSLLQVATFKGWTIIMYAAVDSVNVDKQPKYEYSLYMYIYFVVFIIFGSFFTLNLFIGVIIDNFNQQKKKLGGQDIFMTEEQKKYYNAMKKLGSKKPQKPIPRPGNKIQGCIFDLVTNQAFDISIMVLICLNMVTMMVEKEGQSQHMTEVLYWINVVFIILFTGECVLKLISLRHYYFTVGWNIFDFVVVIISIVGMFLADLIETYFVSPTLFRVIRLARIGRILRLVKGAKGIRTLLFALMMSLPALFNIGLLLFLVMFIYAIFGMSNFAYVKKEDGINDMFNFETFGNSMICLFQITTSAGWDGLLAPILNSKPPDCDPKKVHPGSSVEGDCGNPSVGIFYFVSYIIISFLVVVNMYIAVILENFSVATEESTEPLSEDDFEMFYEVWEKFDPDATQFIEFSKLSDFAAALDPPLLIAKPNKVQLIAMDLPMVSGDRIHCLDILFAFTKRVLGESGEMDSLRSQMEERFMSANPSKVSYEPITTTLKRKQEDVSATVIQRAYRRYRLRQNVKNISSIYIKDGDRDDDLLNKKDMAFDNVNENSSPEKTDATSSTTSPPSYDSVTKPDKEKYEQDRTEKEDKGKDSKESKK
T12 sequence (P63252 whole entry): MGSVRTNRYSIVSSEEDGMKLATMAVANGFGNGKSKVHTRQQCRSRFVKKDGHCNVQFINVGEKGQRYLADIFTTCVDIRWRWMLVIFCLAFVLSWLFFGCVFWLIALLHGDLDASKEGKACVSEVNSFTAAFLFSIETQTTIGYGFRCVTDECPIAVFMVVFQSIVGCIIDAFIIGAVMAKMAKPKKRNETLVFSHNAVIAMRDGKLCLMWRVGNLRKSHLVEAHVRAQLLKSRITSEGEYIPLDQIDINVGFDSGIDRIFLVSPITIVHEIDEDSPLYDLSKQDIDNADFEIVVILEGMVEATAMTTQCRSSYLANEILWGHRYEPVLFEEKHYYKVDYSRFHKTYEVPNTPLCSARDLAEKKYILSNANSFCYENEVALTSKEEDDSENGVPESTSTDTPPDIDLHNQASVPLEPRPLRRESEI
T4 sequence (Q09470 whole entry): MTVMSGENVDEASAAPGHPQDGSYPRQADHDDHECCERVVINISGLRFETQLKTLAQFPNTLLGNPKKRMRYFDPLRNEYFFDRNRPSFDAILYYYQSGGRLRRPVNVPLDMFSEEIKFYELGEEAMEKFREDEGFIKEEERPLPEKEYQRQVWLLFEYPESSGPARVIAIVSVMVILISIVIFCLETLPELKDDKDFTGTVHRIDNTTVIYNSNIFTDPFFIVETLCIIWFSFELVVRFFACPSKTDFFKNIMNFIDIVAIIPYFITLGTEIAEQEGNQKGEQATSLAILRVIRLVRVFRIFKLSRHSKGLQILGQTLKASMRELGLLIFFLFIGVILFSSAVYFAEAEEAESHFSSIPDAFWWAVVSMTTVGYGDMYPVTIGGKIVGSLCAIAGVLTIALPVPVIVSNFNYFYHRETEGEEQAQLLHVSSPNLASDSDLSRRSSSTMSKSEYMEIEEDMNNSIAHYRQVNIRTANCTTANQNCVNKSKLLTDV

Substance: 36 (GSAQEPVKGPVSTKPGSCPIILIRCAMLNPPNRCLKDTDCPGIKKCCEGSCGMACFVPQ) [compound 36]
- Activity of a4b2 with peptide, expressed as a percentage of the reference compound (α4β2; peptide at 0.2 μM): 62%
- Activity of a4b2 with peptide (percentage of the reference compound) (α4β2; peptide at 20 μM): 57%
- Activity of 5HT3a with peptide (percentage of the reference compound) (5HT3a): 83%
- Activity of 5HT3a with peptide, expressed as a percentage of the reference compound (5HT3a): 81%
- Activity of Kv1.2 with peptide, expressed as a percentage of the reference compound (Kv1.2; peptide at 0.2 μM): 91%
- Activity of Kv1.2 with peptide (percentage of the reference compound) (Kv1.2; peptide at 20 μM): 87%
- Activity of Kv1.1 with peptide, expressed as a percentage of the reference compound (Kv1.1; peptide at 0.2 μM): 82%
- Activity of Kv1.1 with peptide (percentage of the reference compound) (Kv1.1; peptide at 20 μM): 101%
- Activity of Kv1.3 with peptide, expressed as a percentage of the reference compound (Kv1.3; peptide at 0.2 μM): 96%
- Activity of Kv1.3 with peptide (percentage of the reference compound) (Kv1.3; peptide at 20 μM): 93%
- Activity of NR2B with peptide, expressed as a percentage of the reference compound (NR2B; peptide at 0.2 μM): 109%
- Activity of NR2B with peptide (percentage of the reference compound) (NR2B; peptide at 20 μM): 96%
- Activity of Cav2.1 with peptide, expressed as a percentage of the reference compound (Cav2.1; peptide at 0.2 μM): 96%
- Activity of Cav2.1 with peptide (percentage of the reference compound) (Cav2.1; peptide at 20 μM): 102%
- Activity of Kv2.1 with peptide, expressed as a percentage of the reference compound (Kv2.1; peptide at 0.2 μM): 104%
- Activity of Kv2.1 with peptide (percentage of the reference compound) (Kv2.1; peptide at 20 μM): 92%
- Activity of Cav2.2 with peptide, expressed as a percentage of the reference compound (Cav2.2; peptide at 0.2 μM): 114%
- Activity of Cav2.2 with peptide (percentage of the reference compound) (Cav2.2; peptide at 20 μM): 87%
- Activity of hERG with peptide, expressed as a percentage of the reference compound (hERG; peptide at 0.2 μM): 84%
- Activity of hERG with peptide (percentage of the reference compound) (hERG; peptide at 20 μM): 65%
- Activity of Nav1.5 with peptide, expressed as a percentage of the reference compound (Nav1.5; [1]): 110%
- Activity of Nav1.5 with peptide, expressed as a percentage of the reference compound (Nav1.5; [2]): 109%
- Activity of Nav1.5 with peptide (percentage of the reference compound) (Nav1.5; [1]): 107%
- Activity of Nav1.5 with peptide (percentage of the reference compound) (Nav1.5; [2]): 112%
- Activity of a3b4 with peptide, expressed as a percentage of the reference compound (α3β4; peptide at 0.2 μM): 95%
- Activity of a3b4 with peptide (percentage of the reference compound) (α3β4; peptide at 20 μM): 87%
- Activity of TRPV1 with peptide, expressed as a percentage of the reference compound (TRPV1; peptide at 0.2 μM): 103%
- Activity of TRPV1 with peptide (percentage of the reference compound) (TRPV1; peptide at 20 μM): 69%
- Activity of GABA with peptide, expressed as a percentage of the reference compound (GABA; peptide at 0.2 μM): 118%
- Activity of GABA with peptide (percentage of the reference compound) (GABA; peptide at 20 μM): 106%
- Activity of Kir2.1 with peptide, expressed as a percentage of the reference compound (Kir2.1; peptide at 0.2 μM): 108%
- Activity of Kir2.1 with peptide (percentage of the reference compound) (Kir2.1; peptide at 20 μM): 91%
- Activity of NR2A with peptide, expressed as a percentage of the reference compound (NR2A; peptide at 0.2 μM): 115%
- Activity of NR2A with peptide (percentage of the reference compound) (NR2A; peptide at 20 μM): 103%
- Activity of TRPA1 with peptide, expressed as a percentage of the reference compound (TRPA1; peptide at 0.2 μM): 106%
- Activity of TRPA1 with peptide (percentage of the reference compound) (TRPA1; peptide at 20 μM): 92%
- Activity of Nav1.7 with peptide, expressed as a percentage of the reference compound (Nav1.7; [3]): 108%
- Activity of Nav1.7 with peptide, expressed as a percentage of the reference compound (Nav1.7; [4]): 118%
- Activity of Nav1.7 with peptide (percentage of the reference compound) (Nav1.7; [3]): 91%
- Activity of Nav1.7 with peptide (percentage of the reference compound) (Nav1.7; [4]): 71%
